{
  "source": "paper doi:10.1101/2024.11.20.624382",
  "about": "“Reconstitution of SPO11-dependent double-strand break formation” (bioRxiv, 2024)",
  "binders": {"B1": {"name": "oligonucleotide cleavage substrate, 44 bp duplex with A4 loops (structured_DNA)", "DNA": "CGGTTCAAAAGAACCGGAGCTGAATGAAGCCATACCAAACGACGAGCGTGACACAAAAGTGTCACGCTCGTCGTTTGGTATGGCTTCATTCAGCTC", "modifications": "circular, ligated by T4 DNA ligase"}, "B2": {"name": "mouse TOP6BL (Topoisomerase VIB-like) (natural protein, UniProt J3QMY9-1 1-579, looked up)", "chain": "MERTALAVCEILRYLIIHWKCEAGTAKGTLLDGQLVISIEALRSKHLPDSLHCIITIASTRSVYGGLNFKKFLQEIQPALPRLSAKLALASEEGGRSQDASGIAPCQVTFEVDENSQSLMTDCLVIKHFLRKIIIVHHKLKFSFSVAVNGTLSAETFGAENEPTLRLDNGVTLVVGFQRYVSKPKLNWSEAHCSRIHPVLGHPAPLFIPDAKADTGLLGELTLTPAAALCPSPKGFSSQLCRISSVSIFLYGPLGLPLLSSDQDQPSTAVFRDTSYFIDWKKYNLFMVPNLDLNLDTQSVLPDVNYKAESPEGNQSQNMNAQGPALLLFLFVDFQSDVPVQQAKIWGLHTLLTAHLSAILSESRSTVQQSIQSAVDQVWQLYHHDAKTQQRLQASLSVAVNSIMSVLTGSTRSSFRKTCLQALEAADTQEFGVKLHRIFYDITQHQFLKHCSCDTEQHLTPEKNISAQNTKDQHKNIAQEFPEESIGQAENKRPKRGSPNHGREESRVLGSARDRSPPKSATRDRELTEVSLTARGSQTQAAHGRAQAAEAASPAGGLEDLWLQEVSNLSEWLNPGHRS", "notes": "TOP6BL, mouse, untagged, full-length optimized coding DNA"}, "B3": {"name": "Flag-tagged mouse SPO11 (natural protein, UniProt Q9WTK8-1 1-396, looked up)", "chain": "MAFAPMGPEASFFDALDRHRASLLAMVKRGAGETPAGATRVASSSEVLTAIENIIQDIIKSLARNEVPAFTIDNRSSWENIMFDDSVGLRMIPQCTTRKIRSDSPKSVKKFALILKVLSMIYKLIQSDTYATKRDIYYTDSQLFGNQAAVDSAIDDISCMLKVPRRSLHVLSTSKGLIAGNLRYMEEDGTRVQCTCSATATAVPTNIQGMQHLITDAKFLLIVEKDATFQRLLDDNFCSRMSPCIMVTGKGVPDLNTRLLVKKLWDTFHIPVFTLVDADPYGIEIMCIYKYGSMSMSFEAHNLTIPTIRWLGLLPSDIQRLNIPKDSLIPLTKHDQMKLDSILKRPYITYQPLWKKELEMMADSKMKAEIQALTLLSSDYLSRVYLPNKLRFGGWI", "notes": "SPO11, mouse, b splicing isoform (includes exon 2), full-length optimized coding DNA; A TEV cleavage site stands between the Flag tag and SPO11; no cleavage is described; also called FlagSPO11; SPO11b; not shown: Flag, N-terminal, kept"}},
  "key": {"[1]": {"biological_target": "T1, SPO11 (beta isoform), WT, in complex with TOP6BL;TOP6BL (Mus musculus;Mus musculus, UniProt Q9WTK8;J3QMY9 1-396;1-579, |)", "T1 sequence 1": "B3 chain", "T1 sequence 2": "B2 chain", "assay": "EMSA; apparent Kd (first monomer complex); 5 mM Mg2+, 4 C, 50 mM NaCl; doubly bound complexes form; EMSA: 25 mM Tris-HCl pH 7.5, 100 mM NaCl, 5 mM MgCl2, 2 mM DTT, 7.5% glycerol, 1 mg/ml BSA, 0.1 nM DNA, 30 C 30 min; cleavage substrate: 25 mM HEPES-NaOH pH 7.5, 50 mM NaCl, 5 mM MgCl2, 2 mM DTT, 7.5% glycerol, 1 mg/ml BSA, 4 C 30 min", "details": "protein: recombinant;recombinant; tags: N-terminal Flag-TEV;untagged; copies: 1;1; label: internal 32P (5'-labeled before ligation); closed dumbbell, 44 bp duplex, A4 loop at both ends"}, "Flag-tagged mouse SPO11": {"biological_target": "B3", "assay": "SEC; Superdex 200 Increase 10/300 GL after anti-Flag M2 affinity purification of the co-expressed proteins; lysis buffer 25 mM HEPES-NaOH pH 7.5, 500 mM NaCl", "details": "both partners purified"}, "[2]": {"biological_target": "B2", "assay": "mass photometry; Refeyn OneMP; 28 nM protein; 25 mM HEPES-NaOH pH 7.5, 150 mM NaCl, 2 mM DTT; with 5 mM ATP", "details": "both partners purified"}},
  "data": [
    {"binder": "B1", "values": [
      {"measurement": "Kd", "setting": "[1]", "result": 1.8, "unit": "nM"}
    ]},
    {"binder": "B2", "values": [
      {"measurement": "stoichiometry N", "setting": "Flag-tagged mouse SPO11", "result": 1}
    ]},
    {"binder": "B3", "values": [
      {"measurement": "binding result", "setting": "[2]", "result": "binds"}
    ]}
  ]
}
